The record followed here is publication PMC6036246, “SAV4189, a MarR-Family Regulator in Streptomyces avermitilis, Activates Avermectin Biosynthesis” (Frontiers in Microbiology, 2018).

Data set [1] concerns T1, His6-SAV4189 (Streptomyces avermitilis), ORF:1042fb45.
T1 sequence: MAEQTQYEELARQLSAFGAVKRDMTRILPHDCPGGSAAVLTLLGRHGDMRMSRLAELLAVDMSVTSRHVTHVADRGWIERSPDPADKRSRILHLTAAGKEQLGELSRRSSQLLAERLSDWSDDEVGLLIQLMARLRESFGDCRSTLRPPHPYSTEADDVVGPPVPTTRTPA
The experiment in a line: EMSA. The following applies: EMSA as in Luo et al. 2014 (buffer not given), 0.15-0.3 nM DIG probe; footprinting 400 ng probe in 25 ul, 30 min at 25 C. In general terms: A gel shift assay detects complexes by their altered migration in electrophoresis.

For data set [2] the test system is unchanged. The data set can be described thus: competition. The following applies: EMSA as in Luo et al. 2014 (buffer not given), 0.15-0.3 nM DIG probe; footprinting 400 ng probe in 25 ul, 30 min at 25 C.
A further data set deals with T2, SAV4189 (His6-SAV4189) (Streptomyces avermitilis, UniProt Q82FR3).
T2 construct: gene SAVERM_4189; full-length, 171 residues (516-bp CDS), His6-tagged from pET-28a(+) (NdeI/EcoRI), E. coli BL21(DE3), Ni-NTA; tag removal not mentioned; MarR family said to be generally homodimeric
T2 sequence (Q82FR3 1-171): T1 sequence
The data set can be described thus: EMSA, release of SAV4189 from DIG-labelled promoter probe […]p. The following applies: 62.5 nM His6-SAV4189, antibiotic in water. The format is binding.

With “GACTGCCGGAACTCCATGCGCTGTGCCCTCCGGTTCGTGGTGTTACTTGGTTTTACCAAGTCAGAGCTTGGAAAGTCCAACAACATGTCTAGACTGCGTCGCATGCCACCTCGCCGAAGCTACGACCAGTACTGTTCCGCGGCCCGAGCCCTCGACGCCGTCGGTGACCGCTGGACCCTCCTGATCGTCCG (double strand) [aspB1p]”, the binding result in data set [1] is “binds”.
For “GACGACTCATATGCGGCAGGCCCTCCCCAGGACGTCGACAGCCGAAAGGCCTTTGGTTGTCCCCACAACCAGTTGTGACGAGACGACTCTATCCAGCAATCGCCCTCCCGCATATCCACTCGTCAAAGGCAACCCTCTCGGGCCATCTGTGCAGGTCAAGTGACCGGAGGGTAGCTAAGACCGTACCGCGCGGCAGTGCCCGAGCGGTGCGGCCTTGGCAACGTTGATC (double strand) [savR1p]”, the binding result in data set [1] is recorded as “no binding”.
Consider “TTGATGACCTCGACCATGTGCACCGGGATACGGATGGTGCGGGCCTGGTCGGCCATGGCGCGGGTGATCGCCTGACGGATCCACCAGGTGGCGTACGTGGAGAACTTGTAGCCCTTGG (double strand) [hrdB]”, for which the binding result in data set [1] and in data set [2] was “no binding” in each case.
For the compound “TCCGGACTTGACTGATCTCGACAGTACTTGGCGCACTTGGCCCACTTGGGATCATTGCGGCGGTTGTTACCGCCCGTAAAGCACCATAAGCGCAGCGGGCGGGAGTTCAAACCCGATCAGCTTGGATAAGGTAAGCCTTACCTGTCAACGATCGTGAAGTCGGTGGTCCCCGCATGCCCTCGCCCGTCGCGGATGCCTACGCAAGGCTGACCGA (double strand) [2073p]”, the binding result in data set [1] is “binds”.
In the case of “TGACCCCTCCCGCCACTTCCCCCGGCACTTTCCATCGCTTCTCGCCGTGAATTGCAGAGATTCCCCACACACTTATCCCGTTATTAATTCAGAACAGCTTCCCGCATTCTTCTGCCCGCTTTCTTTCGTGCTAAACGCAAAGATTTCGCGAACACCAACCGGCTTAATTCGGGCAGGTCCCGCACGGGTCGTCCACTTGTGATCGACTCCACATCGCACCCCTTTCCTCCCGTATTTTCCGGACAAAATGGGGGTTATCGACGC (double strand) [ectAp]”, the binding result in data set [1] is given as “binds”.
In the case of `CN[C@H]1C[C@@H](N)[C@H](O)[C@@H](O[C@@H]2O[C@H](CO)[C@H](O)[C@@H]3OC4(O[C@H]23)O[C@H]([C@@H](N)CO)[C@H](O)[C@H](O)[C@H]4O)[C@@H]1O` (stereo partly drawn) [HygB, hygromycin B], the “EMSA, release of SAV4189 from DIG-labelled promoter probe 4189p” value at SAV4189 (His6-SAV4189) was “SAV4189-4189p complex was disrupted in dose-dependent manner by exogenous HygB and Thi”.
In the case of “CATCACACCTCCCGTATTCGTTGCTTAGGGCAACCATAGGAAAGTTGGTTGCCGCAGGCAAACTAAATAGGGTCTTCAGGGATAAAAACTTGGCAAAGGCAAGTATTGGCAGGCGTAAAGCCGCAGGTGGGGAGGTCAGGAGCGGTCG (double strand) [4189p]”, the binding result in data set [1] and in data set [2] was “binds” each time.
On to “AATTGCTGGCCGAAGCCCGCGCGGGTGTGCAGGTCTGAAACCGCCGGGGGTGAGGTTAGGGGGGTGGGAAAACCTAGGGGTTGGTCCCCGGGGTGGCGCCGGATAGTGTCGAAACGGCTGAAACAGCATTACTGGAGCGGTTGAGAAAAGCAATCCCAGATTCTGTGCCAACGCGGGGAGAACGAGTGGAACTGGCGGATTCCGGCGACCTTTTGGAAATATTCGAGCGTACCGAGGAAATGGCGCGGCTCGCGCATGTGCTGGCGAGTGCCGGACAGGGCGAAGGCGGTGTGGTCCTCG (double strand) [olmRIIp]”, for which the binding entry in data set [1] was “binds”.
The same measure, in the same setting: to “CGTGTTCACTTCAGAAACCTCCCTGACGAGGCCGCGACGTTGCGGCCGAGGTGGCTGGAAGTCAACTCGGCCACACGTGCGACGTCAAGAAGTAAATACTTAACGAGATGGCAACGGTGCCATGCGTTCTCTAAGTGAAGGCAGGGGTGGCCGCGGAAAGCGTGCCATCCAAAAGGGTCGAATCGCCCATCTCGCTCAACGCGAGAGCGAGCGCTCCGAGCACCTCGGCGCGGCCCCCAAGTGCCCCTGGAAGCACCGAGAGTTGAC (double strand) [xylFp]” belongs “no binding”; to “TCATGGGATCTCCGGTGCCGAAGAGGGGACGAGAGCCACTCGGATTTTCTATGGTTAGGCTTACCTAAGTCAACGGGTTCCCGACATCCCGTCGGTAAAATCGTACCCCCGATTCCGATCAAGCCCACAGGAAAAGCCCGCCCCCCGAAGGGAGCGGGCTTTCGCGCGGCGGGCGGGACTACGGCAGCGTCAGGATGTCCGCCCCGCTGTCCGT (double strand) [hmuOp]”, “binds”.
